Earlier results, collected in PMC10606834, “Is the Neuropeptide PEN a Ligand of GPR83?” (International Journal of Molecular Sciences, 2023).

Tests used:
[1] = system: GPR83 (murine Att20 and STC-1 cells); conditions: pilot screen of peptide hormone library, ref [14]
Excerpt: While the earlier study employed CHO cells from Cricetulus griseus and Neuro2A cells from Mus musculus overexpressing human GPR83 [10], this study used human HEK293 and U2OS c ...

[2] = system: GPR83
Excerpt: G protein-coupled receptor 83 (GPR83), also termed glucocorticoid-induced receptor (GIR), GPR72, KIAA1540, or JP05, is a class A G protein-coupled receptor with predominant expression in the […] and proposed function in the regulation of food intake and in anxiety-like behavior [1, 2, 3]. […] A potential role of GPR83 in regulatory T cell development and function has not been confirmed. […] The present study was initiated to evaluate PEN as a ligand of GPR83. […] While one end of the peptide may be crucial for binding the receptor, an absolute requirement of both peptide termini to be free of another ...

B1: FAM237A: 9 kDa protein, termed family with sequence similarity 237 member A (protein, UniProt A0A1B0GTK4 34-181, looked up)
Protein FAM237A: HSQTDLLALSQADPQCWESSSVLLLEMWKPRVSNTVSGFWDFMIYLKSSENLKHGALFWDLAQLFWDIYVDCVLSRNHGLGRRQLVGEEEKISAAQPQHTRSKQGTYSQLLRTSFLKKKELIEDLISMHVRRSGSSVIGKVNLEIKRK
[1]
  GPR83-mediated β-arrestin recruitment: activator of GPR83-mediated β-arrestin recruitment
[2]; comparative evaluation, multiple assay systems, ref [16]
  GPR83 ligand and agonist: only FAM237A was confirmed as a GPR83 ligand and agonist
[2]; multiple luminescence-based interaction and activation assays, ref [16]
  interaction with GPR83: confirmed the interaction of FAM237A
[2]; peptide hormone library screening study, ref [14]
  activation of GPR83: activate GPR83
